Key:
[1] = target: Type-I collagen (VitroCol, human) (human) (UniProt P02452)
[2] = target: Type-I collagen (VitroCol, human) (human) (UniProt P02452); assay: SPR; collagen immobilised on CM5 chip at around 8000 RU; OMD or muteins injected (0.125-2 µM), 30 µl/min; PBS pH 7.4, 0.005% Tween-20, 20 °C; KD by steady state analysis; binding response at 2 µM
[3] = target: T1, Type-I collagen (VitroCol, human) (human, UniProt P02452 162-1218; P08123 80-1119); assay: SPR; temperature dependence of the dissociation constant, van't Hoff analysis; values given at 32 °C; settings: both partners purified
T1 construct: collagen alpha-1(I) chain, human; collagen alpha-2(I) chain, human; the enzyme treatment of the manufacturer may have removed the telopeptides; in immunoelectron microscopy the collagen had been incubated to form fibrils; also called collagen molecules; collagen fibrils; source: bought: Advanced BioMatrix (VitroCol), secreted from human neo-natal fibroblast cells, purified by enzyme treatment
T1 sequence (P02452 162-1218, chain 1 of 2): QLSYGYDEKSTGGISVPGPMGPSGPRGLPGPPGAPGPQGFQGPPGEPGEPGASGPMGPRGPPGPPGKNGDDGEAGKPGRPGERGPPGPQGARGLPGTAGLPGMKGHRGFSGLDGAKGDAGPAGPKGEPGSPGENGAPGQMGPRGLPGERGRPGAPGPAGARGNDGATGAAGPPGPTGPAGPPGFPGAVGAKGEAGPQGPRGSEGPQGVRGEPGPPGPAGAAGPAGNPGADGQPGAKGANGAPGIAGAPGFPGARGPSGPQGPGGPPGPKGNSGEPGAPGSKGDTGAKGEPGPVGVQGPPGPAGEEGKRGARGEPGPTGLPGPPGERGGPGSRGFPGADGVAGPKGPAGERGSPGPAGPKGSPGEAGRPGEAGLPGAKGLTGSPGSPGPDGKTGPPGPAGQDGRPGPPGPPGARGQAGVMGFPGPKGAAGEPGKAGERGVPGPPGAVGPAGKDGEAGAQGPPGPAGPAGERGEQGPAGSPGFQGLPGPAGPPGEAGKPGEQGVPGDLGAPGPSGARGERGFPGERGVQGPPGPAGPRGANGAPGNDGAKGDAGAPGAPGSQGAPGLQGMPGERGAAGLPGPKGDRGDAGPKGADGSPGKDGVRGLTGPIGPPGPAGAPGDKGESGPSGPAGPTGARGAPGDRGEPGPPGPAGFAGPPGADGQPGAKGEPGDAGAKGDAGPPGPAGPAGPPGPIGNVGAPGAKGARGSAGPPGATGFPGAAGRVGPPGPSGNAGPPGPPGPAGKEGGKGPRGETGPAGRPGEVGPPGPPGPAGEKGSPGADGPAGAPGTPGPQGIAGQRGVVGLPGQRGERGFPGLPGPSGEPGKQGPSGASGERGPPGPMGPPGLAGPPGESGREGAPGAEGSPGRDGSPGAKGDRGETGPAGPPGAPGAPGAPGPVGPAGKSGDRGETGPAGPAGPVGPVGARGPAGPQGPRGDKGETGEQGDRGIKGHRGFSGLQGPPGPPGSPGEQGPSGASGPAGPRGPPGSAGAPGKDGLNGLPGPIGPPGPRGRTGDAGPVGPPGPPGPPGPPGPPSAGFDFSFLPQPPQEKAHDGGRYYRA
T1 sequence (P08123 80-1119, chain 2 of 2): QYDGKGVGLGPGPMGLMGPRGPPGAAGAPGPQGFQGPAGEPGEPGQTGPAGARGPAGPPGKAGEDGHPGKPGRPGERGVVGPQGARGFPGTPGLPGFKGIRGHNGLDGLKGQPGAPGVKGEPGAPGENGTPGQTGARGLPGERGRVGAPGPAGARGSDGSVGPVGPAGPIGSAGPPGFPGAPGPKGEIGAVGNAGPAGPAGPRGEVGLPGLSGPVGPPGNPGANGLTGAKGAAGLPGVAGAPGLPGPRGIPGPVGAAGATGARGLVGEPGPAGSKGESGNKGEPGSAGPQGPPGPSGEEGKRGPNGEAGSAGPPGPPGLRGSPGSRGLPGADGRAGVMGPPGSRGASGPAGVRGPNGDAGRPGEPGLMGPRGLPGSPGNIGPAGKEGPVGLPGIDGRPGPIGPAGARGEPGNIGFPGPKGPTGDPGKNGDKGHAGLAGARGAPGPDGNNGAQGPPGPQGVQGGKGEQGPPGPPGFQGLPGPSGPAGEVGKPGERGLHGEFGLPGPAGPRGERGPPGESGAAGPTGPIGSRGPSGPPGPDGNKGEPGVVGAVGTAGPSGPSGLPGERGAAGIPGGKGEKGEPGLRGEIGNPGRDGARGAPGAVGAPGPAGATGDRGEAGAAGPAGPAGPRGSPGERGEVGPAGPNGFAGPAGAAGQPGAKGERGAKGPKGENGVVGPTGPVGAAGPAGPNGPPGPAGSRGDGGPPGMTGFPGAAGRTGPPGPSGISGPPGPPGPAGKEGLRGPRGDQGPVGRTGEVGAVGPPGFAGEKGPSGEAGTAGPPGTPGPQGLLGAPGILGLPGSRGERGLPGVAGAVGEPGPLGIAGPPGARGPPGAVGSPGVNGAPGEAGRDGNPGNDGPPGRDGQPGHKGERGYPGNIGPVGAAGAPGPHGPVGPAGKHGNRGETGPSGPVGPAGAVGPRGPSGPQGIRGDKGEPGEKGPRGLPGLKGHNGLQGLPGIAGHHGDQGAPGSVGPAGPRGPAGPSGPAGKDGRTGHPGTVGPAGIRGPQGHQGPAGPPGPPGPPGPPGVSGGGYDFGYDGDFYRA

[4] = target: T1, Type-I collagen (VitroCol, human); assay: cell-based or functional assay
[5] = target: T1, Type-I collagen (VitroCol, human); assay: SPR; collagen immobilised on CM5 chip at around 8000 RU; OMD or muteins injected (0.125-2 µM), 30 µl/min; PBS pH 7.4, 0.005% Tween-20, 20 °C; KD by steady state analysis; binding response at 2 µM; settings: both partners purified

Sequence of Type-I collagen (VitroCol, human) (human) (P02452 162-1218, chain 1 of 2): as the sequence (P02452 162-1218, chain 1 of 2) above
Sequence of Type-I collagen (VitroCol, human) (human) (P08123 80-1119, chain 2 of 2, further chain): as the sequence (P08123 80-1119, chain 2 of 2) above

## Chimeric OMD (chOMD): N-terminal region of the leucine-rich repeat domain of internalin B fused to a large portion of OMD (from UniProt Q99983 117-364)
[1]
  IC50 (µM) of inhibition of collagen fibril formation (normalized kobs, 1 µM collagen, PBS pH 7.4, 30 °C): 0.22 μM
  kobs (per h) of collagen fibril formation with 0, 0.016, 0.08, 0.4, 2 and 10 μM chOMD (0.89 down to 0.00): 0.89 per h
[2]
  Binding (RU) at 2 µM: 118 RU
  Kd: 25.4 µM

## chOMD D254R (from UniProt Q99983 117-364)
[2]
  Binding (RU) at 2 µM: 74.8 RU
  Kd: 22.3 µM

## chOMD D271R (from UniProt Q99983 117-364)
[2]
  Binding (RU) at 2 µM: 71 RU
  Kd: 25.6 µM

## chOMD E173R (from UniProt Q99983 117-364)
[2]
  Binding (RU) at 2 µM: 118 RU
  Kd: 51.4 µM

## chOMD E225R (from UniProt Q99983 117-364)
[2]
  Binding (RU) at 2 µM: 106 RU
  Kd: 29.1 µM

## chOMD E284A (from UniProt Q99983 117-364)
[1]
  IC50 (µM) of inhibition of collagen fibril formation (normalized kobs, 1 µM collagen, PBS pH 7.4, 30 °C): 0.32 μM
  kobs (per h) of collagen fibril formation with 0, 0.016, 0.08, 0.4, 2 and 10 μM chE284A (1.02 down to 0.00003): 1.02 per h
[2]
  Binding (RU) at 2 µM: 57.4 RU
  Kd: 78.3 µM

## chOMD E284R (from UniProt Q99983 117-364)
[1]
  IC50 (µM) of inhibition of collagen fibril formation (normalized kobs, 1 µM collagen, PBS pH 7.4, 30 °C): 0.61 μM
  kobs (per h) of collagen fibril formation with 0, 0.016, 0.08, 0.4, 2 and 10 μM chE284R (0.90 down to 0.00028): 0.9 per h
[2]
  Binding (RU) at 2 µM: 22.3 RU
  Kd: 32000 µM

## chOMD E284R/E303R (from UniProt Q99983 117-364)
[1]
  IC50 (µM) of inhibition of collagen fibril formation (normalized kobs, 1 µM collagen, PBS pH 7.4, 30 °C): 2.18 μM
  kobs (per h) of collagen fibril formation with 0, 0.016, 0.08, 0.4, 2 and 10 μM chE284R/E303R (1.00 down to 0.65): 1 per h

## chOMD E303A (from UniProt Q99983 117-364)
[1]
  IC50 (µM) of inhibition of collagen fibril formation (normalized kobs, 1 µM collagen, PBS pH 7.4, 30 °C): 0.37 μM
  kobs (per h) of collagen fibril formation with 0, 0.016, 0.08, 0.4 and 2 μM chE303A (1.32 down to 0.51; n.d. at 10 μM): 1.32 per h

## chOMD E303R (from UniProt Q99983 117-364)
[1]
  IC50 (µM) of inhibition of collagen fibril formation (normalized kobs, 1 µM collagen, PBS pH 7.4, 30 °C): 1.87 μM
  kobs (per h) of collagen fibril formation with 0, 0.016, 0.08, 0.4, 2 and 10 μM chE303R (1.35 down to 0.10): 1.35 per h
[2]
  Binding (RU) at 2 µM: 3.7 RU
  Kd: 72.4 µM

## chOMD E311R (from UniProt Q99983 117-364)
[2]
  Binding (RU) at 2 µM: 22.6 RU
  Kd: 5.48 µM

## chOMD N278R (from UniProt Q99983 117-364)
[2]
  Binding (RU) at 2 µM: 47.4 RU
  Kd: 14.3 µM

B1: Osteomodulin (OMD), human, recombinant with C-terminal FLAG-tag (natural protein, UniProt Q99983 21-421, looked up)
chain: QYETYQWDEDYDQEPDDDYQTGFPFRQNVDYGVPFHQYTLGCVSECFCPTNFPSSMYCDNRKLKTIPNIPMHIQQLYLQFNEIEAVTANSFINATHLKEINLSHNKIKSQKIDYGVFAKLPNLLQLHLEHNNLEEFPFPLPKSLERLLLGYNEISKLQTNAMDGLVNLTMLDLCYNYLHDSLLKDKIFAKMEKLMQLNLCSNRLESMPPGLPSSLMYLSLENNSISSIPEKYFDKLPKLHTLRMSHNKLQDIPYNIFNLPNIVELSVGHNKLKQAFYIPRNLEHLYLQNNEIEKMNLTVMCPSIDPLHYHHLTYIRVDQNKLKEPISSYIFFCFPHIHTIYYGEQRSTNGQTIQLKTQVFRRFPDDDDESEDHDDPDNAHESPEQEGAEGHFDLHYYENQE
notes: osteomodulin (OMD), human, without residues 1-20 (signal peptide), residues 21-421; Its own signal peptide was replaced by the sp1-2 signal peptide for secretion; Carbohydrate is modelled in the crystal structure; Monomer by SEC-MALS; also called full-length OMD; WT OMD; source: Sf9 cells, baculovirus, secreted; not shown: FLAG, C-terminal, kept
[3]
  Kd: 12 µM
  dH: 7.9 kcal/mol
[4]
  IC50 (µM) of inhibition of collagen fibril formation (normalized kobs, 1 µM collagen, PBS pH 7.4, 30 °C): 0.08 μM
[5]
  Kd: 24.6 µM

B2: OMD E284R/E303R (double mutant in the construct of full-length OMD) (natural protein, human, UniProt Q99983 21-421, looked up)
chain: QYETYQWDEDYDQEPDDDYQTGFPFRQNVDYGVPFHQYTLGCVSECFCPTNFPSSMYCDNRKLKTIPNIPMHIQQLYLQFNEIEAVTANSFINATHLKEINLSHNKIKSQKIDYGVFAKLPNLLQLHLEHNNLEEFPFPLPKSLERLLLGYNEISKLQTNAMDGLVNLTMLDLCYNYLHDSLLKDKIFAKMEKLMQLNLCSNRLESMPPGLPSSLMYLSLENNSISSIPEKYFDKLPKLHTLRMSHNKLQDIPYNIFNLPNIVRLSVGHNKLKQAFYIPRNLRHLYLQNNEIEKMNLTVMCPSIDPLHYHHLTYIRVDQNKLKEPISSYIFFCFPHIHTIYYGEQRSTNGQTIQLKTQVFRRFPDDDDESEDHDDPDNAHESPEQEGAEGHFDLHYYENQE
[4]
  IC50 (µM) of inhibition of collagen fibril formation (normalized kobs, 1 µM collagen, PBS pH 7.4, 30 °C): 0.29 μM

From article PMC6123635, “Molecular basis for governing the morphology of type-I collagen fibrils by Osteomodulin” (Communications Biology, 2018)
